A word on the kcat: it is the number of substrate molecules converted per active site and unit of time at saturation. As usually defined, the KM is the substrate concentration at which the rate is half of its maximum.

B1: glmS ribozyme (parent)
chain: AUAAAAGCGCCAGAACUACAGAAAUGUAGUUGACGAGGAGGAGGUUUAUCGAAUUUUCGGCGGAUGCCUCCAAA

± gives the standard error. For some of these results: This sample holds only a part of the variants without activity. Where only a bound is given, the exact number is not on record here.

Holding throughout (conditions): with glucosamine-6-phosphate
In series [1] the parent is B1. The series is described as follows: kcat; higher = faster cleavage; RNA array. In short, it runs like this:
(§1)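 Tiles of sequenced MiSeq chips were imaged over ~14 h at 37 °C. On them, barcoded ribozyme variants had been transcribed in situ by E. coli RNA polymerase and were tracked via a hybridised Cy3 probe while glucosamine-6-phosphate (40 μM to 10 mM) in HEPES/KCl/Mg(OAc)2 buffer flowed in. Per-tile medians, normalised to baseline and to non-cleaving reference variants, were fit to one- or two-exponential decays for kobs, and weighted Michaelis–Menten fits gave kcat and KM.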

Series [2] covers variants of B1. The series is described as follows: KM; higher = weaker cofactor use; RNA array. In short, it runs like this:
as §1

Series [3] covers variants of B1. The series is described as follows: self-cleavage kobs at 40 uM GlcN6P; higher = faster cleavage; RNA array. The procedure, abridged:
as §1

In series [4] the parent is B1. The series is described as follows: self-cleavage kobs at 640 uM GlcN6P; higher = faster cleavage; RNA array. The procedure, abridged: as §1
The variants in series [5] derive from B1. The series is described as follows: self-cleavage kobs at 2500 uM GlcN6P; higher = faster cleavage; RNA array. The procedure, abridged: as §1
Variants of B1 are the subject of series [6]. The series is described as follows: self-cleavage kobs at 10000 uM GlcN6P; higher = faster cleavage; RNA array. In short, it runs like this: as §1
Series [7] covers variants of B1. The series is described as follows: self-cleavage kobs at 160 uM GlcN6P; higher = faster cleavage; RNA array. In short, it runs like this:
as §1

For A12U G66C, the kcat in the series with glucosamine-6-phosphate [1] came out at 0.00201 ± 0.00014 s⁻¹. Further, the KM in the series with glucosamine-6-phosphate [2] amounted to 1270 ± 160 µM. Besides, the “self-cleavage kobs at 40 uM GlcN6P” value with glucosamine-6-phosphate [3] stood at 6.36e-05 ± 1.1e-05 s⁻¹. Moreover, the “self-cleavage kobs at 640 uM GlcN6P” value in the series with glucosamine-6-phosphate [4] amounted to 0.00058 ± 0.00016 s⁻¹. Moreover, in the series with glucosamine-6-phosphate [5], the “self-cleavage kobs at 2500 uM GlcN6P” value worked out at 0.00145 ± 0.00028 s⁻¹. Moreover, in the series with glucosamine-6-phosphate [6], the “self-cleavage kobs at 10000 uM GlcN6P” value came to 0.00177 ± 0.00022 s⁻¹.
A33G A64G C70A: in the series with glucosamine-6-phosphate [1], the kcat was 5.02e-05 ± 9.3e-06 s⁻¹.
With A14C U55C, the catalytic constant (kcat) in the series with glucosamine-6-phosphate [1] stood at 0.00399 ± 0.0011 s⁻¹. For the same variant, in the series with glucosamine-6-phosphate [2], the KM stood at 1800 ± 660 µM. Besides, the “self-cleavage kobs at 40 uM GlcN6P” value with glucosamine-6-phosphate [3] was determined as 8.57e-05 ± 1.1e-05 s⁻¹. Also, the “self-cleavage kobs at 160 uM GlcN6P” value with glucosamine-6-phosphate [7] was 0.000312 ± 7.6e-05 s⁻¹. In the series with glucosamine-6-phosphate [4], the “self-cleavage kobs at 640 uM GlcN6P” value was 0.00122 ± 0.00015 s⁻¹. Further, in the series with glucosamine-6-phosphate [5], the “self-cleavage kobs at 2500 uM GlcN6P” value turned out to be 0.00171 ± 0.00035 s⁻¹. In the series with glucosamine-6-phosphate [6], the “self-cleavage kobs at 10000 uM GlcN6P” value worked out at 0.00439 ± 0.00076 s⁻¹.
Turning to A48G U56G, in the series with glucosamine-6-phosphate [1], the kcat was 7.92e-05 ± 1.9e-06 s⁻¹. The Michaelis constant (KM) in the series with glucosamine-6-phosphate [2] is 696 ± 110 µM. In the series with glucosamine-6-phosphate [3], the “self-cleavage kobs at 40 uM GlcN6P” value was < 1e-05 s⁻¹. The “self-cleavage kobs at 2500 uM GlcN6P” value with glucosamine-6-phosphate [5] came out at 6.4e-05 ± 1.3e-05 s⁻¹. Further, the “self-cleavage kobs at 10000 uM GlcN6P” value with glucosamine-6-phosphate [6] turned out to be 7.35e-05 ± 8.9e-06 s⁻¹.
For the variant G13A C16A, the kcat with glucosamine-6-phosphate [1] is 0.000316 ± 9.2e-06 s⁻¹. Moreover, the “self-cleavage kobs at 2500 uM GlcN6P” value in the series with glucosamine-6-phosphate [5] was determined as 4.78e-05 ± 7.4e-06 s⁻¹. In addition, the “self-cleavage kobs at 10000 uM GlcN6P” value in the series with glucosamine-6-phosphate [6] was 0.000132 ± 1.9e-05 s⁻¹.
For the variant A36U A39C, the kcat in the series with glucosamine-6-phosphate [1] was < 1e-05 s⁻¹. In addition, the “self-cleavage kobs at 40 uM GlcN6P” value with glucosamine-6-phosphate [3] is < 1e-05 s⁻¹. In addition, the “self-cleavage kobs at 160 uM GlcN6P” value with glucosamine-6-phosphate [7] was < 1e-05 s⁻¹. Besides, the “self-cleavage kobs at 2500 uM GlcN6P” value in the series with glucosamine-6-phosphate [5] was < 1e-05 s⁻¹. For the same variant, the “self-cleavage kobs at 10000 uM GlcN6P” value in the series with glucosamine-6-phosphate [6] is < 1e-05 s⁻¹.
As for U54G C61U, the kcat in the series with glucosamine-6-phosphate [1] was 2.79e-05 ± 5.8e-06 s⁻¹. Moreover, the “self-cleavage kobs at 2500 uM GlcN6P” value in the series with glucosamine-6-phosphate [5] was 3.11e-05 ± 1.3e-05 s⁻¹. For the same variant, in the series with glucosamine-6-phosphate [6], the “self-cleavage kobs at 10000 uM GlcN6P” value worked out at 2.39e-05 ± 1e-05 s⁻¹.
On to A36U G37A, for which the kcat with glucosamine-6-phosphate [1] amounted to 1.19e-05 ± 3e-06 s⁻¹.
Consider A33U A53G, for which the kcat in the series with glucosamine-6-phosphate [1] came out at 3.38e-05 ± 6.8e-06 s⁻¹. Besides, in the series with glucosamine-6-phosphate [3], the “self-cleavage kobs at 40 uM GlcN6P” value was < 1e-05 s⁻¹. In the series with glucosamine-6-phosphate [5], the “self-cleavage kobs at 2500 uM GlcN6P” value is 3.39e-05 ± 1e-05 s⁻¹. Besides, the “self-cleavage kobs at 10000 uM GlcN6P” value with glucosamine-6-phosphate [6] is 2.98e-05 ± 6.7e-06 s⁻¹.
Take U45C C68G: the kcat with glucosamine-6-phosphate [1] was found to be 9.46e-05 ± 8.6e-06 s⁻¹. The KM in the series with glucosamine-6-phosphate [2] stood at 714 ± 250 µM. Also, in the series with glucosamine-6-phosphate [4], the “self-cleavage kobs at 640 uM GlcN6P” value worked out at 4.14e-05 ± 1.1e-05 s⁻¹. In addition, the “self-cleavage kobs at 2500 uM GlcN6P” value in the series with glucosamine-6-phosphate [5] was 8.62e-05 ± 1.5e-05 s⁻¹. The “self-cleavage kobs at 10000 uM GlcN6P” value with glucosamine-6-phosphate [6] amounted to 8.34e-05 ± 1.2e-05 s⁻¹.
As for G29C G40C, in the series with glucosamine-6-phosphate [1], the kcat stood at 9.96e-05 ± 4.4e-06 s⁻¹. The KM in the series with glucosamine-6-phosphate [2] was 1020 ± 150 µM. In addition, the “self-cleavage kobs at 640 uM GlcN6P” value with glucosamine-6-phosphate [4] is 3.65e-05 ± 1.5e-05 s⁻¹. For the same variant, the “self-cleavage kobs at 2500 uM GlcN6P” value with glucosamine-6-phosphate [5] stood at 7.4e-05 ± 1.6e-05 s⁻¹. Besides, the “self-cleavage kobs at 10000 uM GlcN6P” value with glucosamine-6-phosphate [6] amounted to 8.84e-05 ± 1.8e-05 s⁻¹.
Consider U57G C61G C70U, for which the kcat with glucosamine-6-phosphate [1] is 2.66e-05 ± 9e-06 s⁻¹. Further, in the series with glucosamine-6-phosphate [4], the “self-cleavage kobs at 640 uM GlcN6P” value was 3.58e-05 ± 1.7e-05 s⁻¹.
With U30C G37A, the kcat with glucosamine-6-phosphate [1] was 2.63e-05 ± 1.2e-06 s⁻¹. In the series with glucosamine-6-phosphate [2], the KM is 710 ± 290 µM. Moreover, the “self-cleavage kobs at 10000 uM GlcN6P” value with glucosamine-6-phosphate [6] came out at 2.44e-05 ± 9e-06 s⁻¹.
For the variant G40C A52U, the kcat in the series with glucosamine-6-phosphate [1] was found to be 8.17e-05 ± 1.4e-05 s⁻¹. Further, the “self-cleavage kobs at 2500 uM GlcN6P” value in the series with glucosamine-6-phosphate [5] stood at 7.08e-05 ± 9.7e-06 s⁻¹. Moreover, the “self-cleavage kobs at 10000 uM GlcN6P” value with glucosamine-6-phosphate [6] was 7.15e-05 ± 8.3e-06 s⁻¹.
With U31C U55C, the kcat with glucosamine-6-phosphate [1] amounted to 0.00793 ± 0.00044 s⁻¹. In addition, the KM with glucosamine-6-phosphate [2] was determined as 3750 ± 300 µM. The “self-cleavage kobs at 40 uM GlcN6P” value with glucosamine-6-phosphate [3] was found to be 8.92e-05 ± 2.1e-05 s⁻¹. Also, the “self-cleavage kobs at 160 uM GlcN6P” value with glucosamine-6-phosphate [7] came to 0.000317 ± 6.4e-05 s⁻¹. The “self-cleavage kobs at 640 uM GlcN6P” value in the series with glucosamine-6-phosphate [4] is 0.00116 ± 0.00021 s⁻¹. Further, in the series with glucosamine-6-phosphate [5], the “self-cleavage kobs at 2500 uM GlcN6P” value was 0.00284 ± 0.00079 s⁻¹. The “self-cleavage kobs at 10000 uM GlcN6P” value with glucosamine-6-phosphate [6] stood at 0.00585 ± 0.00073 s⁻¹.
As to U47C C50U, in the series with glucosamine-6-phosphate [1], the kcat was found to be 4.46e-05 ± 3.5e-07 s⁻¹. In addition, the KM in the series with glucosamine-6-phosphate [2] worked out at 1670 ± 52 µM. Also, the “self-cleavage kobs at 2500 uM GlcN6P” value with glucosamine-6-phosphate [5] stood at 2.69e-05 ± 1.3e-05 s⁻¹. Besides, in the series with glucosamine-6-phosphate [6], the “self-cleavage kobs at 10000 uM GlcN6P” value is 3.82e-05 ± 1.1e-05 s⁻¹.
In the case of U30A, the kcat with glucosamine-6-phosphate [1] was 0.0142 ± 0.0014 s⁻¹. For the same variant, in the series with glucosamine-6-phosphate [2], the KM is 2550 ± 310 µM. The “self-cleavage kobs at 40 uM GlcN6P” value with glucosamine-6-phosphate [3] came to 0.000227 ± 5e-06 s⁻¹. The “self-cleavage kobs at 160 uM GlcN6P” value with glucosamine-6-phosphate [7] came out at 0.000758 ± 6.8e-05 s⁻¹. In the series with glucosamine-6-phosphate [4], the “self-cleavage kobs at 640 uM GlcN6P” value stood at 0.00244 ± 0.00012 s⁻¹. Further, the “self-cleavage kobs at 2500 uM GlcN6P” value with glucosamine-6-phosphate [5] amounted to 0.00727 ± 0.00029 s⁻¹. The “self-cleavage kobs at 10000 uM GlcN6P” value with glucosamine-6-phosphate [6] amounted to 0.0114 ± 0.00039 s⁻¹.
On to C34A G38C, for which the kcat with glucosamine-6-phosphate [1] is < 1e-05 s⁻¹. Also, the “self-cleavage kobs at 640 uM GlcN6P” value in the series with glucosamine-6-phosphate [4] is < 1e-05 s⁻¹.

The record behind these values is the supplement of paper PMC7125110.
